Results reported in article PMC3830487, “A DELLA gene, RhGAI1, is a direct target of EIN3 and mediates ethylene-regulated rose petal cell expansion via repressing the expression of RhCesA2”.

Legend:
[1] = target: T1, RhGAI1 (C-terminal fragment with binding domain) (rose, UniProt M9XGL2 238-618); assay: competition; mutated competitor vs biotin-labelled N3; EMSA per Wang et al. 2011, LightShift chemiluminescent kit (Pierce); 1 ug recombinant protein, 2 nM biotin-labelled probe; buffer, salt, pH and temperature not; conditions: tags: GST (pGEX-2T)
T1 sequence: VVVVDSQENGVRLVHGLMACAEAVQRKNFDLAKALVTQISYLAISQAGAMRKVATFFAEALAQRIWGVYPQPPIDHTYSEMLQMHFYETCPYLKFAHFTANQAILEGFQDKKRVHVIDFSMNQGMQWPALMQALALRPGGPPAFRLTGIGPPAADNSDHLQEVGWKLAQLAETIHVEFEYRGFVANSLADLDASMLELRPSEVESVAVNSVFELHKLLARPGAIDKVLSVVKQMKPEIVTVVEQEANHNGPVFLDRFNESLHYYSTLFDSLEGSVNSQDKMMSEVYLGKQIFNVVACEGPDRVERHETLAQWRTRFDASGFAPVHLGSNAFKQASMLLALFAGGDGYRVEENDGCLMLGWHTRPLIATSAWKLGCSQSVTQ

[2] = target: T2, RhEIN3-3 (N-terminal fragment with DNA-binding domain) (rose, UniProt M9XFM8 141-356); assay: competition; mutated competitor vs biotin-labelled N1; EMSA per Wang et al. 2011, LightShift chemiluminescent kit (Pierce); 1 ug recombinant protein, 2 nM biotin-labelled probe; buffer, salt, pH and temperature not; conditions: tags: GST (pGEX-2T), chain copies: 2
T2 sequence: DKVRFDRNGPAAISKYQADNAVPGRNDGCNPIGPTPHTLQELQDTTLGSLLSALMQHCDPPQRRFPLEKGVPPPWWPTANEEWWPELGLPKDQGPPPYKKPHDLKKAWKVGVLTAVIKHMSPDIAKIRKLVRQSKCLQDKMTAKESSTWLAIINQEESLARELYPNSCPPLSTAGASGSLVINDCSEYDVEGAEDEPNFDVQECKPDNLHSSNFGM

[3] = target: T2, RhEIN3-3 (N-terminal fragment with …); assay: EMSA; competed by unlabelled probe; EMSA per Wang et al. 2011, LightShift chemiluminescent kit (Pierce); 1 ug recombinant protein, 2 nM biotin-labelled probe; buffer, salt, pH and temperature not; conditions: tags: GST (pGEX-2T), chain copies: 2, label: biotin, blunt
[4] = target: T1, RhGAI1 (C-terminal fragment with …); assay: as above; conditions: tags: GST (pGEX-2T), label: biotin, blunt

B1: proRhCesA2 mutated probe (dsDNA)
DNA 1: GCAGAGGGCTGACTCAGTCGGTGGAGATTT
DNA 2: AAATCTCCACCGACTGAGTCAGCCCTCTGC
Does B1 bind [1]?
Result: no binding

B2: proRhGAI1 mutated probe (dsDNA)
DNA 1: CAGTCACGTTTTATACTCAGTAAGAGGTATTAAAATTCTAGAG
DNA 2: CTCTAGAATTTTAATACCTCTTACTGAGTATAAAACGTGACTG
Does B2 bind [2]?
Result: no binding

B3: proRhGAI1 probe (dsDNA)
DNA 1: CGTTTTATACTAATTCAAAGGTATTAA
DNA 2: TTAATACCTTTGAATTAGTATAAAACG
Does B3 bind [3]?
Result: binds

B4: proRhCesA2 probe (dsDNA)
DNA 1: GCAGAGGGCTAATTTAGTCGGTGGAGAT
DNA 2: ATCTCCACCGACTAAATTAGCCCTCTGC
Does B4 bind [4]?
Result: binds
